{"source": "patent US20240240209A1", "about": "“SYNTHESIS OF ENANTIOPURE CIS-A-IRONE FROM A RENEWABLE CARBON SOURCE” (Agency for Science, Technology and Research, priority 2021, published 2024)", "molecules": {"B1": {"name": "pMT10: pMT1 with Y200F S182E L273V L180A A202L Y65F C156A T91P (protein)", "chain": "MPQEARTPQQQVTADEVGDWYDKFGEVYHLTLGESVHCGLWFPPDAPVPQDMELVTMSSQAQDRFTDYLIETLDPKAGQHLLDIGCGTGRPALKAARQRGIAVTGVAVSKEQIAAANRLAAGHGLTERLTFEVADAMRLPYEDESFDCAWAIESLAHMDRAKALGEAWRVLKPGGDLLVAEEVVTEELTEPETALFETLFALNVPPRLGEFFDIVSGAGFHTLSLKDLSANLAMTMNVFALGVYSRRAEFTERFGAEFVDGLLAGLGSAQETVIRKTRFFMATLRKPAV", "modifications": "Modified from pMT1", "notes": "pMT1 with Y200F S182E L273V L180A A202L Y65F C156A T91P"}}, "test": "Fed-batch production of cis-α-irone in 5 L bioreactor", "format": "cell-based, Escherichia coli", "conditions": "10% DO, another 24 h after feeding stopped", "description": "FIGS. 5a and 5b show the time-course profiles of OD600, cis-α-irone, β-irone and psi-ionone titers when DO was controlled at 2% and 10% respectively.\nLastly, a single-phase fed-batch process was tested in a 5 L bioreactor. Even though 2O31 ΔmetJ strain produced a higher titer of cis-α-irone, its growth seemed to be impeded during fermentation. Thus, 2O31-pMT10 strain was tested. The optimized bioprocess for α-ionone was applied^8, in which the glucose feeding rate was set at 10 g/h and the glucose concentration was kept between 0-5 g/L. Two different dissolved oxygen (DO) levels were tested: 2% and 10%. Under these DO settings, evaporation was kept at minimum which is <0.05%. […] Subsequently, cis-α-irone production became faster at 2% DO than 10% DO. At 113 h, when glucose feeding was stopped, approximately 109 mg/L and 106 mg/L cis-α-irone were produced at 2% and 10% DO respectively. By continuing incubating the cultures for another 24 h, a final titer of approximately 153 mg/L and 172 mg/L cis-α-irone were produced at 2% and 10% DO respectively. Simultaneously, a decrease in psi-ionone concentration was observed during the last 24 h, indicating psi-ionone was converted to cis-α-irone. Other DO levels may also be used, for example 15%. […]"}
{"molecule": "B1", "values": [{"measurement": "final titer of cis-α-irone", "result": "~172", "unit": "mg/L"}]}
